# Experimental data from patent US20210040206A1 (OSE IMMUNOTHERAPEUTICS, published 2021).
# T1: SIRPa V3 (SNP1 + 2 + 3 + 4 + 5 + 6) recombinant protein, extracellular domain fused with mouse Fc from IgG2a (human; mouse, UniProt P78324 31-373)
# T1 construct: SNP3 (51 A) is silent; not shown: mouse Fc from IgG2a
# T1 chain: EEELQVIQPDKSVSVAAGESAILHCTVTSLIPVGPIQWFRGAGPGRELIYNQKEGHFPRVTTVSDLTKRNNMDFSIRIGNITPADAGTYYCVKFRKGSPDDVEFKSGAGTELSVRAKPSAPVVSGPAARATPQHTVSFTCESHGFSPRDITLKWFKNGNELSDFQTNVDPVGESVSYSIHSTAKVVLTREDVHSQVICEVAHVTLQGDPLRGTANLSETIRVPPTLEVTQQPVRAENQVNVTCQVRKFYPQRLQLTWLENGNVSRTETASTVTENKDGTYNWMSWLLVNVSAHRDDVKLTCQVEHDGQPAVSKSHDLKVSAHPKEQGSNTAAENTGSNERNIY
# What was measured:
# [1] = molecular target: T2, human SIRPa v2 expressed by blood monocytes (V2/V2 donors) (human, UniProt P78324 31-504); assay: FACS competition on human monocytes of V2/V2 donors; blocked ligand: biotinylated CD47Fc, revealed with streptavidin-PE
# T2 construct: also called variant 2; V2 protein
# Experimental: (§1) METHOD: Human monocytes (purified by elutriation from human PBMC at DTC platform, Nantes, and frozen in DMSO at 10M/ml at −80° C. or liquid nitrogen) were thawed in 40 mL complete RPMI medium. Then immediately centrifuged at 1000 rpm during 10 minCells are resuspended in 10 mL of RPMI medium and counted on Malassez cell. Frozen human monocytes are thawed, diluted samples are added and biotinylated CD47Fc is added afterwards. […] The following protocol was applied: —Put 100,000 human monocytes per well on V-bottom P96 plate; —Centrifuge 1 min at 2500 rpm and empty wells by flicking the plate; —Wash cells 2 times with 200 μL PSE (Centrifuge 1 min at 2500 rpm and empty wells); —Prepare 8 dilutions of the sample beginning with 10 μg/mL (concentrated 2×, final concentration 5 μg/mL) and diluting by steps of 3; —Add 12.5 μL of sample/well on cells and mix; —Incubate 15 min on ice; —Prepare CD47Fc biotinylated solution concentrated 2×, determined in function of paragraph and add 12.5 μL of this solution/well on cells and mix.—Incubate 30 min on ice; —Add 175 μL PSE/w-Centrifuge 1 min at 2500 rpm and empty wells; —Wash cells 2 times with 200 μL PSE (Centrifuge 1 min at 2500 rpm and empty wells). An intermediate concentration is chosen for CD47Fc biotinylated. Here, 5 μg/mL CD47Fc biotinylated are took for the antagonist test. […]
# [2] = molecular target: T1, SIRPa V3 (SNP1 + 2 + 3 + 4 + 5 + 6) …; assay: ELISA on immobilised SIRPa variant-mouse Fc, donkey anti-human IgG peroxidase, TMB 450 nm; given as ED50
# Experimental: (§2) FIG. 4. SIRPa variants binding study using anti-human SIRPa v1 antibody and Kwar antibody by Elisa. Assessment of the binding by ELISA on immobilized SIRPa mutated variants (SIRPa from v1 to v8, see Table 2 in example 1) linked to the mouse Fc domain. Anti-human SIRPa v1 antibody and Kwar antibody (known to bind both SIRPa v1 and SIRPa v2) were compared for their ability to bind the different SIRPa mutated variants.
# (§3) Method: The binding activity of the anti-SIRPa antibodies was assessed by ELISA. For the ELISA assay, the in-house anti-human SIRPa v1 antibody and Kwar antibody were tested on 8 different mutated hSIRPa (SIRPA v1 to v8; see table 2). The different variants of mutated hSIRPa (SIRPa v1 to v8) were immobilized on plastic at 0.5 μg/ml in carbonate buffer (pH9.2) and the purified antibody was added to measure binding.
# [3] = molecular target: T3, SIRPa V4 (SNP8) recombinant protein, extracellular domain fused with mouse Fc from IgG2a (human; mouse, UniProt P78324 31-373); assay: as above
# T3 construct: not shown: mouse Fc from IgG2a
# Experimental: as §2, §3
# [4] = molecular target: T4, SIRPa V6 (SNP12 + 13) recombinant protein, extracellular domain fused with mouse Fc from IgG2a (human; mouse, UniProt P78324 31-373); assay: as above
# T4 construct: SNP13 is printed as 101 N without a change; not shown: mouse Fc from IgG2a
# Experimental: as §2, §3
# [5] = molecular target: T5, SIRPa V7 (SNP14 + ?) recombinant protein, extracellular domain fused with mouse Fc from IgG2a (human; mouse, UniProt P78324 31-373); assay: as above
# T5 construct: not shown: mouse Fc from IgG2a
# Experimental: as §2, §3
# [6] = molecular target: T6, SIRPa V5 (SNP9 + 10 + 11) recombinant protein, extracellular domain fused with mouse Fc from IgG2a (human; mouse, UniProt P78324 31-373); assay: as above
# T6 construct: SNP11 (97 T) is silent; not shown: mouse Fc from IgG2a
# Experimental: as §2, §3
# [7] = molecular target: T7, SIRPa V1 recombinant protein (extracellular domain fused with mouse Fc from IgG2a) (human; mouse, UniProt P78324 31-373); assay: as above
# T7 construct: not shown: mouse Fc from IgG2a
# Experimental: as §2, §3
# [8] = molecular target: T8, human SIRPa v1 expressed by blood monocytes or monocyte-derived cells (V1/V1 donors) (human, UniProt P78324 31-504); assay: FACS competition on human monocytes of V1/V1 donors; blocked ligand: biotinylated CD47Fc, revealed with streptavidin-PE
# T8 construct: donors were typed on exon 3; also called variant 1
# Experimental: as §1
# T8 sequence (P78324 31-504 limits assumed): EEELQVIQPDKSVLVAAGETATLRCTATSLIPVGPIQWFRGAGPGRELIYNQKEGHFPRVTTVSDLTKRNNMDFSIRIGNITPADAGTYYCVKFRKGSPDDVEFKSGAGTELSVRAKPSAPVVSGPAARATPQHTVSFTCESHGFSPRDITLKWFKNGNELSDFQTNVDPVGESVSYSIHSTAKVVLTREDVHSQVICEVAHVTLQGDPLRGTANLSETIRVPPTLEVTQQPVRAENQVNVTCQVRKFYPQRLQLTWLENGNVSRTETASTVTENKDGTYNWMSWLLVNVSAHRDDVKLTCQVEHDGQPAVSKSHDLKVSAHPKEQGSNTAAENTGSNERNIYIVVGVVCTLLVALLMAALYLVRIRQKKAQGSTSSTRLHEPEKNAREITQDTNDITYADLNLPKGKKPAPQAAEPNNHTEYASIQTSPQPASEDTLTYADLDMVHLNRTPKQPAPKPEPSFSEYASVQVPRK
binder,measurement,setting,value
"in-house anti-human SIRPa v1 antibody (antibody, human IgG4, V domains shown, also called in-house anti-SIRPa v1 antibody; in-house antibody) VH: EVQLVQSGAEVKKPGESLRISCKASGYSFTSYWVHWVRQMPGKGLEWMGNIDPSDSDTHYSPSFQGHVTLSVDKSISTAYLQLSSLKASDTAMYYCVRGGTGTLAYFAYWGQGTLVTVSS VL: DVVMTQSPLSLPVTLGQPASISCRSSQSLVHSYGNTYLYWFQQRPGQSPRLLIYRVSNRFSGVPDRFSGSGSGTDFTLKISRVEAEDVGVYYCFQGTHVPYTFGGGTKVEIK",IC50 (read off the curve),[1],~200 ng/mL
same,EC50,[2],0.99 ng/mL
same,EC50,[3],0.71 ng/mL
same,EC50,[4],0.72 ng/mL
same,EC50,[5],0.54 ng/mL
same,EC50,[6],0.63 ng/mL
same,EC50,[7],0.78 ng/mL
same,IC50 (read off the curve),[8],~90 ng/mL
